pKd: −log10 of the molar value.
Target: receptor binding domain (RBD) of the SARS-CoV-2 spike protein (residues 319-541) (SARS-CoV-2) (UniProt P0DTC2)
Assay: SPR

Substance “wild-type sACE2-Fc (soluble ACE2, residues 1-615, fused to human IgG Fc) (from UniProt Q9BYF1 18-615) (Fc fusion)” has a pKd of 7.63.

Reference: PMC11432317
